Assay results taken from PMC8439657, “Bipartite binding and partial inhibition links DEPTOR and mTOR in a mutually antagonistic embrace” (eLife, 2021).

Molecular target: T1, mTOR FRB domain, residues 2015-2114 (human, UniProt P42345 2015-2114)
T1 construct: mTOR, human, FRB domain, residues 2015-2114; The methods describe the purification of the GST-FRB fusion and mention no TEV cleavage; also called isolated FRB domain; source: E. coli C41(DE3)RIPL, purified (Glutathione-Sepharose, HiTrapQ, Superdex 75)
T1 sequence (P42345 2015-2114): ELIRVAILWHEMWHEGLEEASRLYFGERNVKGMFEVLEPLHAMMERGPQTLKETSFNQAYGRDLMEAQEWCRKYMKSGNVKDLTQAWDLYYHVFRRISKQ
Assay: NMR titration; up to 220 µM unlabelled linker-PDZ added to 40 µM 15N-labelled FRB; 1H-15N BEST-TROSY, chemical shift perturbation; 278K, pH 8, 50 mM HEPES, 200 mM NaCl
Details: both partners purified

Kd: ~500 µM
B1: DEPTOR long-linker-PDZ, residues 228-409 (domain or fragment)
chain: MELLNEKSPSSQETHDSPFCLRKQSHDNRKSTSFMSVSPSKEIKIVSAVRRSSMSSCGSSGYFSSSPTLSSSPPVLCNPKSVLKRPVTSEELLTPGAPYARKTFTIVGDAVGWGFVVRGSKPCHIQAVDPSGPAAAAGMKVCQFVVSVNGLNVLHVDYRTVSNLILTGPRTIVMEVMEELEC
modifications: GST tag left out (TEV-cleavable). pOPL111 states no variant, so the reference sequence is used. The full-length WT clone is the S204/N389 natural variant, so residue 389 of this construct may be N …
